Laboratory results taken from patent US20230159632A1 (SHANGHAI JUNSHI BIOSCIENCES, published 2023).
Positions count from the first letter of the chain named.

T1: recombinant human IL-17A-mFc protein (human, UniProt Q16552 24-155, Biotinylated before the blocking assays of Examples 9 and 12 (sites not given); disulfide-linked dimer through IL-17A and the Fc.)
T1 construct: also called recombinant fusion protein IL-17A-mFc
T1 sequence: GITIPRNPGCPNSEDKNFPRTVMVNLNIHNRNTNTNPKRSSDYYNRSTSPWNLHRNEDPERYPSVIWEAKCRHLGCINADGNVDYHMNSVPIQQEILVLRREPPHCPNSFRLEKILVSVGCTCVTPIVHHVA

T2: human IL-17RA on stable IL-17RA 293F cell lines (human) (UniProt Q96F46)
T2 sequence (looked up): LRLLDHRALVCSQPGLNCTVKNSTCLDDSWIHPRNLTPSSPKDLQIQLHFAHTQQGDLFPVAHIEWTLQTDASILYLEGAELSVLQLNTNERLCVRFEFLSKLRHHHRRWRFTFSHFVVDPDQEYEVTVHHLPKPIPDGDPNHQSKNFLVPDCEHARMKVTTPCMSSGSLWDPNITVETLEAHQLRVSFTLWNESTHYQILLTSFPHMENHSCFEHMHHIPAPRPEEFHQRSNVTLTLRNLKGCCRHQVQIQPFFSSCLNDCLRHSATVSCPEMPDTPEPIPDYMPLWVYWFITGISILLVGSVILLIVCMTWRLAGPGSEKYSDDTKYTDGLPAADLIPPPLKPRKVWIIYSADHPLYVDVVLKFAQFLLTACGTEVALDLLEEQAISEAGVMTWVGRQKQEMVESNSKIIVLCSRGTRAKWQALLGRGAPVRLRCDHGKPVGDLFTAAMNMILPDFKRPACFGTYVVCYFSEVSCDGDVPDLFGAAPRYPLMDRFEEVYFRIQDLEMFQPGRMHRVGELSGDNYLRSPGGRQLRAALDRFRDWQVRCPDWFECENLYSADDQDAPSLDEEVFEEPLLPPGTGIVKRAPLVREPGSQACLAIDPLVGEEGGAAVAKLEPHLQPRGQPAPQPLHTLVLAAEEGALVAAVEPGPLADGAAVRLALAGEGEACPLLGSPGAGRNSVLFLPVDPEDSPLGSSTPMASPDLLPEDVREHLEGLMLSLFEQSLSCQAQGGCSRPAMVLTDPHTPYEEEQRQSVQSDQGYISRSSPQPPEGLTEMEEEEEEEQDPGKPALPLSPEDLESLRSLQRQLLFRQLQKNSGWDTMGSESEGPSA

B1: humanized antibody hu59 (antibody, human IgG4 S228P, kappa, V domains shown)
VH: QVQLQESGPGLVKPSETLSLTCTVTGYSISSDYAWSWIRQPPGKGLEWIGFISYSGPTSYNPSLKSRVTISRDTSKNQFSLKLSSVTAADTAVYYCARGGDGDSFDYWGQGTLVTVSS
VL: DVVMTQSPLSLPVTLGQPASISCRSSQSIVHSNGNTYLDWYLQKPGKSPKLLIYKVSNRFSGVPDRFSGSGSGTDFTLKISRVEAEDLGVYYCFQGSHFPTFGQGTKLEIKR
B2: humanized antibody hu250 (antibody, human IgG4 S228P, kappa, V domains shown)
VH: B1 VH with T25S, S30T, S80F, K82Q, S84K, L113T
VL: B1 VL with S7T, P12S, L15P, R24K, K47Q, L88V, Q104G, L108V
B3: humanized antibody hu60 (antibody, human IgG4 S228P, kappa, V domains shown)
VH: B1 VH
VL: B1 VL with K47Q, D75S
B4: humanized antibody hu43 (antibody, human IgG4 S228P, kappa, V domains shown)
VH: QIQLVQSGAEVKKPGASVKISCKASGYIFTNYGMNWMRQAPGQGLEWMGWINDHTGEPTYADKFQGRVTFTLDTSASTAYMELSRLRSDDTAVYYCANYGFGYFDYWGQGTLVTVSS
VL: DVVMTQSPLSLPVTLGQPASISCRSSQSLVHSNGNSYLHWYLQKPGQSPQLLIYKVSNRFSGVPDRFSGSGSGTDFTLKISRVEAEDVGVYYCSQSTHVPYTFGQGTKLEIKR
B5: humanized antibody hu44 (antibody, human IgG4 S228P, kappa, V domains shown)
VH: B4 VH
VL: B4 VL with Y92F
B6: humanized antibody hu31 (antibody, human IgG4 S228P, kappa, V domains shown)
VH: B4 VH with I2V, I20V, A76I
VL: B4 VL
notes: Humanized from ch1
B7: chimeric antibody ch1 (antibody, V domains shown)
VH: QIQLVQSGPELKKPGETVKISCKASGYIFTNYGMNWMKQAPGKGLKWMGWINDHTGEPTYADDFKGRFAFSLETSASTAYLQINNLKKEDTATYFCANYGFGYFDYWGQGTTLTVSS
VL: DVVMTQTPLSLPVSLGDQASISCRSSQSLVHSNGNSYLHWYLQKPGQSPKLLIYKVSNRFSGVPDRFSGSGSGTDFTLKISRVEAEDLGVYFCSQSTHVPYTFGGGTKLEIK
B8: chimeric antibody ch4 (antibody, V domains shown)
VH: B7 VH
VL: DVLMTQTPLSLPVSLGDQASISCRSSQSIVHSNGNTYLDWYLQKPGQSPKLLIYKVSNRFSGVPDRFSGSGSGTSFTLKISRVEAEDLGVYYCFQGSHFPTFGGGTKLEIK
B9: chimeric antibody ch2 (antibody, V domains shown)
VH: B7 VH
VL: B7 VL with M4V, S26G, N35H, S36T, L38F, V90I
B10: chimeric antibody ch7 (antibody, V domains shown)
VH: QVQLKESGPGLVAPSQSLSITCTVSGFSLINYDIHWLRQPPGKGLEWLGVIWAGGRTHSDSALMSRLSISKDNSKSQVFLNVHSLRPEDTAIYYCAREGGDYYKYLDFWGQGTTLTVSS
VL: DVKMTQSPSSMYASLGERVTITCKASHDINSYLSWFQQKPGKSPKTLIYRANGLVDGVPSRFSGSGSGQDYSLTISSLEYEDMGVYYCLQYEMLPLTFGAGTKLELK
B11: chimeric antibody ch16 (antibody, V domains shown)
VH: DVQLQESGPGLVKPSQSLSLTCTVTGYSITSDYAWSWIRQFPGNKLEWMAFISYSGPTSYNPSLKSRVSITRDTSKNQFFLQLKSVTTEDTATYYCARGGDGDSFDYWGQGTTLTVSS
VL: B8 VL

biological target: T1, recombinant human IL-17A-mFc protein; assay: ELISA, human IL-17A-mFc coated (method of Example 8)
Procedure: (§1) The binding specificity of the chimeric antibodies to human IL-17A was determined by conventional ELISA. Namely, 0.5 μg/mL of human IL-17A-mFc was immobilized on a 96-well plate and incubated for 60-90 minutes at 37° C. The solution in wells was then discarded, and the wells were washed 3 times with washing buffer, and blocked for 60 minutes with PBS containing 2% BSA. The plate was washed 3 times with washing buffer, and added with diluted chimeric antibodies at different concentrations. The antibodies were incubated at 37° C. for 60 minutes. The plate was then washed 3 times with washing buffer, and added with 10000-fold diluted biotinylated anti-IgG4 antibody. The system was incubated at 37° C. for 1 hour, washed three times with washing buffer, added with HRP-Strep 10000-fold diluted with washing buffer, and incubated at room temperature for 1 hour. After 3 washes with washing buffer, 100 μL of TMB substrate was added for color development. The system was incubated at room temperature for 30 minutes, and the reaction was terminated with 100 μL of 2 M hydrochloric acid solution. The absorbance at 450 nm was measured by a plate reader.
The binding specificity of the humanized antibodies to human IL-17A was determined by conventional ELISA. The method and procedures are described in Example 8.

B1 and B2 are within 1.5-fold of each other in EC50: 0.0061 µg/mL for the first, 0.00635 µg/mL for the second.

B3 and B4 are within 1.5-fold of each other in EC50: 0.00578 µg/mL for the first, 0.00864 µg/mL for the second.

B5 and B6 are within 1.5-fold of each other in EC50: 0.00676 µg/mL for the first, 0.00813 µg/mL for the second.

biological target: T1, recombinant human IL-17A-mFc protein; assay: ELISA, human IL-17A-mFc (0.5 µg/mL) coated, biotinylated anti-IgG4 detection
Procedure: as §1

Going from B7 to B8, the EC50 rises from 0.00662 µg/mL to 0.0885 µg/mL (13-fold).

Going from B9 to B10, the EC50 rises from 0.00517 µg/mL to 0.04 µg/mL (7.7-fold).

Work on B11 yielded an EC50 of 0.0154 µg/mL.

biological target: T1, recombinant human IL-17A-mFc protein; assay: competitive FACS: blocks binding of biotinylated human IL-17A-mFc to IL-17RA on 293F cells
Procedure: (§2) The blocking of binding of IL-17A to IL-17RA on cells was detected by a competitive cell-based flow cytometry (FACS) assay. Briefly, chimeric antibody dilutions of different concentrations (3-fold diluted from 10 μg/mL) were mixed with the pre-biotinylated human IL-17A-mFC (3 μg/mL) obtained in Example 1, and incubated at room temperature for 30 minutes. […] After 3 washes with PBS, 5 μg/mL of anti-mouse IgG was added and the system was incubated at room temperature for 30 minutes.
The blocking of binding of IL-17A to IL-17RA on cells was detected by a competitive cell-based flow cytometry (FACS) assay. The method and procedures are described in Example 9.

B1 and B2 are within 1.5-fold of each other in IC50: 0.467 µg/mL for the first, 0.578 µg/mL for the second.

Compared with B3, B4 is 1.6-fold higher in IC50: 0.483 µg/mL for the first, 0.781 µg/mL for the second.

B5 and B6 are within 1.5-fold of each other in IC50: 0.829 µg/mL for the first, 0.868 µg/mL for the second.

biological target: T1, recombinant human IL-17A-mFc protein; assay: competitive FACS: blocks binding of biotinylated human IL-17A-mFc (3 µg/mL) to IL-17RA on 293F cells
Procedure: as §2

B7 and B9 are within 1.5-fold of each other in IC50: 4.46 µg/mL for the first, 3.15 µg/mL for the second.

B10 and B11 are within 1.5-fold of each other in IC50: 1.22 µg/mL for the first, 1.45 µg/mL for the second.

biological target: T2, human IL-17RA on stable IL-17RA 293F cell lines (human); assay: FACS, 3 µg/mL IL-17A-mFc on stable IL-17RA 293F cells, anti-mouse IgG detection; control group (1% BSA, no IL-17A-mFc) gave 308

“recombinant human IL-17A-mFc protein (from UniProt Q16552 24-155) (Fc fusion)” was tested, and the MFI (mean fluorescence intensity) was 7700 MFI.
